# IntAct's records for PubMed 31515488
# B1: Tuftelin-interacting protein 11 (Homo sapiens), Q9UBB9 (parent)
# chain: MSLSHLYRDGEGRIDDDDDERENFEITDWDLQNEFNPNRQRHWQTKEEATYGVWAERDSDDERPSFGGKRARDYSAPVNFISAGLKKGAAEEAELEDSDDEEKPVKQDDFPKDFGPRKLKTGGNFKPSQKGFAGGTKSFMDFGSWERHTKGIGQKLLQKMGYVPGRGLGKNAQGIINPIEAKQRKGKGAVGAYGSERTTQSMQDFPVVDSEEEAEEEFQKELSQWRKDPSGSKKKPKYSYKTVEELKAKGRISKKLTAPQKELSQVKVIDMTGREQKVYYSYSQISHKHNVPDDGLPLQSQQLPQSGKEAKAPGFALPELEHNLQLLIDLTEQEIIQNDRQLQYERDMVVNLFHELEKMTEVLDHEERVISNLSKVLEMVEECERRMQPDCSNPLTLDECARIFETLQDKYYEEYRMSDRVDLAVAIVYPLMKEYFKEWDPLKDCTYGTEIISKWKSLLENDQLLSHGGQDLSADAFHRLIWEVWMPFVRNIVTQWQPRNCDPMVDFLDSWVHIIPVWILDNILDQLIFPKLQKEVENWNPLTDTVPIHSWIHPWLPLMQARLEPLYSPIRSKLSSALQKWHPSDSSAKLILQPWKDVFTPGSWEAFMVKNIVPKLGMCLGELVINPHQQHMDAFYWVIDWEGMISVSSLVGLLEKHFFPKWLQVLCSWLSNSPNYEEITKWYLGWKSMFSDQVLAHPSVKDKFNEALDIMNRAVSSNVGAYMQPGARENIAYLTHTERRKDFQYEAMQERREAENMAQRGIGVAASSVPMNFKDLIETKAEEHNIVFMPVIGKRHEGKQLYTFGRIVIYIDRGVVFVQGEKTWVPTSLQSLIDMAK
# partner: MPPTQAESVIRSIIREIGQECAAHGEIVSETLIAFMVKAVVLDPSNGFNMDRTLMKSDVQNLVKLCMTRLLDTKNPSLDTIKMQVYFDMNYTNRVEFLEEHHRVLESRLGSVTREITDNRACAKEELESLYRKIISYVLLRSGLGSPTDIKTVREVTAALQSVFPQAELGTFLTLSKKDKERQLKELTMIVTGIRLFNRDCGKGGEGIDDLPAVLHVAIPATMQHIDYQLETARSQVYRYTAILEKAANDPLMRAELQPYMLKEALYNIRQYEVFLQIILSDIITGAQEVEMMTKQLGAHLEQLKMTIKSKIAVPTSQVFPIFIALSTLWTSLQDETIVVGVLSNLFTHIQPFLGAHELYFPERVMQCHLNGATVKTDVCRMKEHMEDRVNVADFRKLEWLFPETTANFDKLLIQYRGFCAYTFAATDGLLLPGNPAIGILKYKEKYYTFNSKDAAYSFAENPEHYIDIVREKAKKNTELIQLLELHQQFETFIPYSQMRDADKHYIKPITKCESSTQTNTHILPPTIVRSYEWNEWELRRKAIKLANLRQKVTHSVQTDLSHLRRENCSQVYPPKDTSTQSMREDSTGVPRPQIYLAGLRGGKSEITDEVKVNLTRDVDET
# B2: STAM-binding protein (Homo sapiens), O95630 (parent)
# chain: MSDHGDVSLPPEDRVRALSQLGSAVEVNEDIPPRRYFRSGVEIIRMASIYSEEGNIEHAFILYNKYITLFIEKLPKHRDYKSAVIPEKKDTVKKLKEIAFPKAEELKAELLKRYTKEYTEYNEEKKKEAEELARNMAIQQELEKEKQRVAQQKQQQLEQEQFHAFEEMIRNQELEKERLKIVQEFGKVDPGLGGPLVPDLEKPSLDVFPTLTVSSIQPSDCHTTVRPAKPPVVDRSLKPGALSNSESIPTIDGLRHVVVPGRLCPQFLQLASANTARGVETCGILCGKLMRNEFTITHVLIPKQSAGSDYCNTENEEELFLIQDQQGLITLGWIHTHPTQTAFLSSVDLHTHCSYQMMLPESVAIVCSPKFQETGFFKLTDHGLEEISSCRQKGFHPHSKDPPLFCSCSHVTVVDRAVTITDLR
# partner: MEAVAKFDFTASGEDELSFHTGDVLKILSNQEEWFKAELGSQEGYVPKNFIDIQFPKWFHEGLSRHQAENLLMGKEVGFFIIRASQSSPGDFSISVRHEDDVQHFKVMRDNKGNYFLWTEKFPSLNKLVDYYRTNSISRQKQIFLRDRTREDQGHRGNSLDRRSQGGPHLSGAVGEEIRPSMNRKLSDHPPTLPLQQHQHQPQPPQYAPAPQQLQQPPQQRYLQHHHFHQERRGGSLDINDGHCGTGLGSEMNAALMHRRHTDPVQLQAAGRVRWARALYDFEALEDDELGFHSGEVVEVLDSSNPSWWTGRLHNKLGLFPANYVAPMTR
# B3: Aminoacylase-1 (Homo sapiens), Q03154 (parent)
# chain: MTSKGPEEEHPSVTLFRQYLRIRTVQPKPDYGAAVAFFEETARQLGLGCQKVEVAPGYVVTVLTWPGTNPTLSSILLNSHTDVVPVFKEHWSHDPFEAFKDSEGYIYARGAQDMKCVSIQYLEAVRRLKVEGHRFPRTIHMTFVPDEEVGGHQGMELFVQRPEFHALRAGFALDEGIANPTDAFTVFYSERSPWWVRVTSTGRPGHASRFMEDTAAEKLHKVVNSILAFREKEWQRLQSNPHLKEGSVTSVNLTKLEGGVAYNVIPATMSASFDFRVAPDVDFKAFEEQLQSWCQAAGEGVTLEFAQKWMHPQVTPTDDSNPWWAAFSRVCKDMNLTLEPEIMPAATDNRYIRAVGVPALGFSPMNRTPVLLHDHDERLHEAVFLRGVDIYTRLLPALASVPALPSDS
# partner: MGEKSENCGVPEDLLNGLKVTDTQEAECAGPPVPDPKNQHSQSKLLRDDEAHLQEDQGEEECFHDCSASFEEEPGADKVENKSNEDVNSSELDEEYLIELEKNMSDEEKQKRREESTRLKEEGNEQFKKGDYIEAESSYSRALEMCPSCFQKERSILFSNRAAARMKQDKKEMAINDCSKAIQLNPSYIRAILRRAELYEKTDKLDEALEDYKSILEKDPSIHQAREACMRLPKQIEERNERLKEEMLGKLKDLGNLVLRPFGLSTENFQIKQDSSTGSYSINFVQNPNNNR
# B4: 5-phosphohydroxy-L-lysine phospho-lyase (Homo sapiens), Q8IUZ5 (parent)
# chain: MAADQRPKADTLALRQRLISSSCRLFFPEDPVKIVRAQGQYMYDEQGAEYIDCISNVAHVGHCHPLVVQAAHEQNQVLNTNSRYLHDNIVDYAQRLSETLPEQLCVFYFLNSGSEANDLALRLARHYTGHQDVVVLDHAYHGHLSSLIDISPYKFRNLDGQKEWVHVAPLPDTYRGPYREDHPNPAMAYANEVKRVVSSAQEKGRKIAAFFAESLPSVGGQIIPPAGYFSQVAEHIRKAGGVFVADEIQVGFGRVGKHFWAFQLQGKDFVPDIVTMGKSIGNGHPVACVAATQPVARAFEATGVEYFNTFGGSPVSCAVGLAVLNVLEKEQLQDHATSVGSFLMQLLGQQKIKHPIVGDVRGVGLFIGVDLIKDEATRTPATEEAAYLVSRLKENYVLLSTDGPGRNILKFKPPMCFSLDNARQVVAKLDAILTDMEEKVRSCETLRLQP
# partner: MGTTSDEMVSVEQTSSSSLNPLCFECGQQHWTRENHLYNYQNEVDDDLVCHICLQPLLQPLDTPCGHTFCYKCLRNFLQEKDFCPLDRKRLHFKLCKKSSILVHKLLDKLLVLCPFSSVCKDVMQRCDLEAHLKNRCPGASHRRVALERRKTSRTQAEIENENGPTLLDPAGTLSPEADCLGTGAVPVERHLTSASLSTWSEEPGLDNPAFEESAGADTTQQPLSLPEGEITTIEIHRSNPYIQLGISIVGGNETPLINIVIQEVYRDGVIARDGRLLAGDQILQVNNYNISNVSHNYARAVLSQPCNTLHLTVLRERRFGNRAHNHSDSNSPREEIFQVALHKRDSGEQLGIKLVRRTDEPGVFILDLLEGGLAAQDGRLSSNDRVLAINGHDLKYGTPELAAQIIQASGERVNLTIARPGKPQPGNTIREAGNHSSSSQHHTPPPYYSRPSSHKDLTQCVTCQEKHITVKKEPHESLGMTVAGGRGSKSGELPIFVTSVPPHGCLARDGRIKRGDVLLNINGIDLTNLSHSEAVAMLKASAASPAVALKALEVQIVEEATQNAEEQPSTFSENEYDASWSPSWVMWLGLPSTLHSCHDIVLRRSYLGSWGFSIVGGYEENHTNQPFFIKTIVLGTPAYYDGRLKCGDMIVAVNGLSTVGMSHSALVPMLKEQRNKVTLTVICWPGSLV
# Variants of: B1
# Conditions: with cf206_human CFAP206, Q8IYR0
row,effect of a mutation on the interaction,Variant
1,with no effect,R8Q
2,with no effect,S688L

# Variants of: B2
# Conditions: with grap2_human GRAP2, O75791
row,effect of a mutation on the interaction,Variant
1,disrupting interaction strength,Q155H
2,with no effect,R255H

# Variants of: B3
# Conditions: with ttc1_human TTC1, Q99614
row,effect of a mutation on the interaction,Variant
1,disrupting interaction strength,R197W

# Variants of: B4
# Conditions: with lnx2_human LNX2, Q8N448
row,effect of a mutation on the interaction,Variant
1,with no effect,H126R
